# Earlier results as cited in PMC3295331.
# Molecular target: Cav3.1 (UniProt O54898)
# UniProt O54898, sequence (O54898 whole entry): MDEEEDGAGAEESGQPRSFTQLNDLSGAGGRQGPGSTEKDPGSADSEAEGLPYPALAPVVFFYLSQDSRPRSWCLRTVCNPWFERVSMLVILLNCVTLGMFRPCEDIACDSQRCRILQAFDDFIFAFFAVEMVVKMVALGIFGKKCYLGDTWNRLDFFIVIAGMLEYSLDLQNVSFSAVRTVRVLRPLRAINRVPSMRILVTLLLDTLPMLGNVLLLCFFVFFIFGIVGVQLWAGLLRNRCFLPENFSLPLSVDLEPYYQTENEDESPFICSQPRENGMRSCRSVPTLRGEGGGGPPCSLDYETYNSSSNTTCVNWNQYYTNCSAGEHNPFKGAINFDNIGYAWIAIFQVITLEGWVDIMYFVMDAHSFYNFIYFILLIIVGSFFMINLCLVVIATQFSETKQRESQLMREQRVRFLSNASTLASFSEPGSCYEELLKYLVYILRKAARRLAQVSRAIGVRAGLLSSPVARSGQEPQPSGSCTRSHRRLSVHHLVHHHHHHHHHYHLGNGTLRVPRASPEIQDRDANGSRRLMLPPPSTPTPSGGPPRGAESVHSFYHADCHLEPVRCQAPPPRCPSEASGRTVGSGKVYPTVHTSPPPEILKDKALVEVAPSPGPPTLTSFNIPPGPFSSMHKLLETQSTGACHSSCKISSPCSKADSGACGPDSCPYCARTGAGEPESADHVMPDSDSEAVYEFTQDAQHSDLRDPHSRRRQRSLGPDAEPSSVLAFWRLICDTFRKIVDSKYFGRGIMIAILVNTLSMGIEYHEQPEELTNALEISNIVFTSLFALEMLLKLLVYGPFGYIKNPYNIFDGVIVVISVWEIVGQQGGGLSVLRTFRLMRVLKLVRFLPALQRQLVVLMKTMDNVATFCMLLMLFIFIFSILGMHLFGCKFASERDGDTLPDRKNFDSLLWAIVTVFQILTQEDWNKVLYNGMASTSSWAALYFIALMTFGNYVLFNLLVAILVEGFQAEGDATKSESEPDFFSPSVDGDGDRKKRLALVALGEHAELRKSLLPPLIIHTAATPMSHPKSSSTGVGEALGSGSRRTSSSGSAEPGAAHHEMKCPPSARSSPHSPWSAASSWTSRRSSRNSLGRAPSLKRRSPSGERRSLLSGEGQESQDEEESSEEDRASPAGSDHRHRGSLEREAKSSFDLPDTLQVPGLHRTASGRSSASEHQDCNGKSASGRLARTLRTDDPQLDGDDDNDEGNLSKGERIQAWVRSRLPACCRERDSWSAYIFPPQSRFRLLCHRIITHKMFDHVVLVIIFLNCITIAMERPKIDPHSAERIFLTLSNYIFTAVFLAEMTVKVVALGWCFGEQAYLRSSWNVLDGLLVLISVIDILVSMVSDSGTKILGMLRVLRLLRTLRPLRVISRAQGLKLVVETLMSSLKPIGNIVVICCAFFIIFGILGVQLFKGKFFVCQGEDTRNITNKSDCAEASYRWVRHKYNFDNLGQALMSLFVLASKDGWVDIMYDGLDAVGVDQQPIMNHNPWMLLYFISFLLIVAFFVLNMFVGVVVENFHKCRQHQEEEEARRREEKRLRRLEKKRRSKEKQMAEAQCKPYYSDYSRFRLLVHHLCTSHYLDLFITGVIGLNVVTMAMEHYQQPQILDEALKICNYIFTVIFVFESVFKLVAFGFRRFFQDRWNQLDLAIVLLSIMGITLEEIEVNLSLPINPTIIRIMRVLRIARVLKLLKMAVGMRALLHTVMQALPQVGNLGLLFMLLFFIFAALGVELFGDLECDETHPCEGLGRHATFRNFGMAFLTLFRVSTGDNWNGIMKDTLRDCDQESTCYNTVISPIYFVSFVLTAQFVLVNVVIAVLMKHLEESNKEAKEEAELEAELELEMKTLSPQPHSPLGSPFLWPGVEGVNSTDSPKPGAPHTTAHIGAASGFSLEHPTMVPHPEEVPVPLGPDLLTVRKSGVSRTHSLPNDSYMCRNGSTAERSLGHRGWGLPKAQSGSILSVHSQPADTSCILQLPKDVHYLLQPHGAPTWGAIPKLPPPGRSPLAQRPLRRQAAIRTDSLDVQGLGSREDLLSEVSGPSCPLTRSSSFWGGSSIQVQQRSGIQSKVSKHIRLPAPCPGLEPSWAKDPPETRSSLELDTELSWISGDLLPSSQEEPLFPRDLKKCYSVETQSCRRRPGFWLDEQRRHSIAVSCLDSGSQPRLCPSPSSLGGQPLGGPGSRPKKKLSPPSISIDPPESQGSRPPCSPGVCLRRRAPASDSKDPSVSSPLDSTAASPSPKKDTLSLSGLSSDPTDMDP
substance,measurement,value
Kurtoxin (from UniProt P58910),Kd,15 nM
